{
  "source": "paper PMC8754640",
  "key": {"[1]": {"molecular_target": "His-PABP 4EA-Flag (Flag-PABP 4EA) (UniProt P11940 2-636, E178A;E180A;E182A;E189A)", "sequence (P11940 2-636 E178A/E180A/E182A/E189A)": "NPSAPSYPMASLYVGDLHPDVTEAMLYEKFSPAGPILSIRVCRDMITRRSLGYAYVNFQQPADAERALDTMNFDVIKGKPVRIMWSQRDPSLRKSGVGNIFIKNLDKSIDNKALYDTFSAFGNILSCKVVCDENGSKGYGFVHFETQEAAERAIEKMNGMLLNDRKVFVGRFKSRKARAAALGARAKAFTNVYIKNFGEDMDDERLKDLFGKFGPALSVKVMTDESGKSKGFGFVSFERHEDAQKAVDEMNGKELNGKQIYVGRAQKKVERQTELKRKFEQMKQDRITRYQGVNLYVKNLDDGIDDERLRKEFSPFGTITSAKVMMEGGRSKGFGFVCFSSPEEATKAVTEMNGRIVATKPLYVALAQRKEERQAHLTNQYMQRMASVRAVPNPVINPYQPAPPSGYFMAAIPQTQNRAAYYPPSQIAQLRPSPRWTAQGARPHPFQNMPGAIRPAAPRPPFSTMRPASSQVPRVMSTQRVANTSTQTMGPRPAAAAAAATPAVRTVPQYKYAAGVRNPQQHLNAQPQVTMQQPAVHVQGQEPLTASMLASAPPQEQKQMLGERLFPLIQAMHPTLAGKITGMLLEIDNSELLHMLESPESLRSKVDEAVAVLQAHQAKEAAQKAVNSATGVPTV", "assay": "EMSA"}, "[2]": {"molecular_target": "His-PABP WT-Flag (Flag-PABP) (UniProt P11940 2-636)", "sequence (P11940 2-636)": "as the sequence (P11940 2-636 E178A/E180A/E182A/E189A) above, with A177E, A179E, A181E, A188E counted along it", "assay": "EMSA"}},
  "data": [
    {"binder": "AAAAAAAAAAAAAAAAAAAAAAAAA (ssRNA)", "note": "[poly(A)25]", "values": [
      {"measurement": "Kd", "setting": "[1]", "result": "~2.2", "unit": "nM"},
      {"measurement": "Kd", "setting": "[2]", "result": "~0.5", "unit": "nM"}
    ]}
  ]
}
